Source: patent publication US20030175735

System: recombinant protein ACp5 (p5 cleavage site of the HIV protease inserted between amino acids 224 and 225 of the adenyl cyclase of B. pertussis)

wild-type protease of the HIV virus
cleavage in vitro: The cleavage of ACp5 by the HIV protease was also shown in vitro
phenotype on McConkey maltose medium of DHT1 bacteria cotransformed with pKACp5 and pUCVIH: exhibit a Cya^- phenotype (white colonies on McConkey maltose medium) in the absence of protease inhibitors
